B1: Subtilisin inhibitor, P01006 (parent)
chain: MRNTGAGPSPSVSRPPPSAAPLSGAALAAPGDAPSALYAPSALVLTVGKGVSATTAAPERAVTLTCAPGPSGTHPAAGSACADLAAVGGDLNALTRGEDVMCPMVYDPVLLTVDGVWQGKRVSYERVFSNECEMNAHGSSVFAF

Variants of: B1
Details: Streptomyces albogriseolus, Thermal, DSC, reversible: yes, structure 3SSI, whole UniProt chain shown; for ddG of mutation (higher = less stable) / unfolding free energy: 82.21 °C

Variant | Tm (pH 7, phosphate 25 mM) [°C] | change of melting temperature, mutant - wild type (higher = more stable) (pH 7, phosphate 25 mM) [°C] | unfolding enthalpy (calorimetric) (pH 7, phosphate 25 mM) [kcal/mol] | ddG of mutation (higher = less stable) (pH 9.5, glycine 25 mM) [kcal/mol] | unfolding free energy (pH 9.5, glycine 25 mM) [kcal/mol] | Tm (pH 9.5, glycine 25 mM) [°C] | change of melting temperature, mutant - wild type (higher = more stable) (pH 9.5, glycine 25 mM) [°C] | unfolding enthalpy (calorimetric) (pH 9.5, glycine 25 mM) [kcal/mol] | ddG of mutation (higher = less stable) (pH 7, phosphate 25 mM) [kcal/mol] | unfolding free energy (pH 7, phosphate 25 mM) [kcal/mol]
V44L | 77.7 | -4.5 | 175 | 2.52 | 3.52 | 75.4 | -5.3 | 170 | – | –
V44M | 69.6 | -12.6 | 181 | 5.43 | 0.61 | 69 | -11.7 | 176 | 5.92 | 0.11
V44G | 54.5 | -27.7 | 162 | – | – | 55.3 | -25.4 | 158 | – | –
V44A | – | – | – | – | – | 67 | -13.7 | 190 | – | –
V44I | 79.8 | -2.4 | 182 | 0.94 | 5.1 | 78.9 | -1.83 | 178 | 0.84 | 5.19
V44F | 69.1 | -13.5 | 168 | 5.33 | 0.71 | 68.3 | -12.4 | 164 | 5.69 | 0.34
